Measured values as given in the DeepSol protein solubility set.

Assay: soluble on expression in E. coli; label from the status in PepcDB or PDB records

Sequence | soluble on expression in E. coli
MGQQLLSHQSVSSQWLANQSATSTLPLLDLSLLSGSDTERQAFLTALRHAARDVGFFYLTGHGIDTSLLRQIQILSRQFFALSDEEKLSIAMIRSPHFRGYNRAASEFTRGQPDWREQFDIGAERTPLPQIAGAPSWTRLQGPNQWPTALPELKPVLLQWQEEMTRMSLRLLRAFALALDLDEQAFDALYGDKPNEHIKLIRYPGREATQSGQGVGAHKDSGFLSFLLQDTQRGLQVEVEEGQWIDAVPREGTFVVNIGELLELASNGYLRATVHRVETPPAGIDRLSIAFFLGARLDAVVPLYPLSAALAAEARGPASDPHNPLFRDVGLNYLKGRLRSHPDVAERYYSDALCS | not soluble
MGSDKIHHHHHHMFQLHHKLAADSFLVGDFPLSTCRLINDCQFPWLILVPRVSGIKELYELSEADQTQFLRESSWLSSQLAKTFQADKMNVAALGNQVPQLHFHHIVRYQNDMQWPNPVWGIPAVPYSKEVLAQMQQTLMMALRGHHQMPFDWQM | not soluble
SADNGGYVPAVVIGTGYGAAVSALRLGEAGVQTLMLEMGQLWNQPGPDGNIFCGMLNPDKRSSWFKNRTEAPLGSFLWLDVVNRNIDPYAGVLDRVNYDQMSVYVGRGVGGGSLVNGGMAVEPKRSYFEEILPRVDSSEMYDRYFPRANSMLRVNHIDTKWFEDTEWYKFARVSREQAGKAGLGTVFVPNVYDFGYMQREAAGEVPKSALATEVIYGNNHGKQSLDKTYLAAALGTGKVTIQTLHQVKTIRQTKDGGYALTVEQKDTDGKLLATKEISCRYLFLGAGSLGSTELLVRARDTGTLPNLNSEVGAGWGPNGNIMTARANHMWNPTGAHQSSIPALGIDAWDNSDSSVFAQIAPMPAGLETWVSLYLAITKNPQRGTFVYDAATDRAKLNWTRDQNAPAVNAAKALFDRINKANGTIYRYDLFGTQLKAFADDFCYQPLGGCVLGKATDDYGRVAGYKNLYVTDGSLIPGSVGVNPFVTITALAERNVERIIKQDVTAS | soluble
MSTKYLFIYNEIREKILCNKYTMNEQLPDEMTLAKQFACSRMTIKKALDLLVSEGLIFRKRGQGTFVLSRGSSKRKLIVPERDIRGLTKISEDAHSTIDSRIIHFKLEFANEFLAEKLQVALQSPVYNIYRLRIIDGKPYVLEQTYMSTDVIPGITEDILQKSIYNYIEGKLGLHIASATKILRASSSSENEQHYLQLLPTEPVFEVEQVAYLDNGTPFEYSISRHRYDLFEFNSFALRHSS | not soluble
MRRGGSMGPPSGDPYQSRPSPGGYYYNRSTPGGQPAPSPSHSQQSASSHHPRGVPMSQPIARRSDYRTGSEQMTPRSDHRGPSMGYGNGGSVDQRVDDVTPSYYVEHLATFAVGRQFGLTFPADGIRKLKQMEKNSAIWAQPLILRFRHNAVTVEDDNGELVEQFPLELIEQPTAHVSNDSRETYNNVLLFVVREDRKRMSTPTEMHIFQCIRVSATDVAEDLKNYVQGQFRRVRNGRRTAAPTHLQAQQQQMPFYPPDDASISSETSEMFERDVNTLNRCFDDIERFVARIQSAALAQREIEQQNHRYRTANRRDKKNQQPPDPNGILFMRAQLPLESEFVDILKKFKLSFNLLAKLKNHIHEPNAPELLHFLFTPLAVILEACHWGLGRNVAPTVASPLLSLEARELMQNCLTSHESDIWMSLGEAWRTPPEDWTKPLPPPYRPIFNDGFAPYGVADRAMATPNQIHRGHSAPPEHFRQPPPRERNMVDTLEFDRLTLERERLEFEKAKIMERESRLRHEEKQIEDEKRRMHAEKDLITKETTQPVPPPAAVVTHQPITKRYDPPISISPPPQRNNYSHVKVTVDSDTSPRQQAFIDDIVAKGGKLAVVTYDRGGQNTKELTVHKGEYLEVIFDERNWWECKNMHQRVGYVPHTILSMVPFEQQQYAQQYNVMSSQHNVIQINDGVGKMEVFISKTCNFILITTCNLFCSTTKTAVPDIYRAFVMNDETRQMSGTPCENSRSFLSSNTLSSSPENAPEIPLLENLKFNHNKLYLFHILSPNHHNNSSSTGGYNNGHHQGPGMLPEDAPSYVKERQAQNVYRPPPPPLVSDAGVQVEIRREHVAPPPPPVVIPPPPPPVRTPTMEELLRMQQQQQQKQRKPPVEEPVYQPQPAQRAGLEIWRRNQNPQLIQEVTETVGQHSGDILRPAMQRATRVAINEKSSPEDVTRWLQEKGFSPRVIDLLDGQDGANLFSLSKLHLQQACGRDEGGYLYSQLLVQKKRSGFRTHTGDELKAILNHRRTHVELSNEAAADEPVFTINPIL | not soluble
MAHHHHHHMTGSNGNDEPFKREMRTVKVPHHRFPALKKVWMDVYTPIVEQCKLEIRMNLRGRSVELRTCPATVEAAGNEGSKALLQKAEDFVKAVVAGFDVKDAVALLRMDDVYIEGFEVKDVRANLQGDNLSRCIGRMSGSHGKTKHTIENVTRTRIVIADTHICIMGTTQNIRVARDALCDLIRGSPATKVYTRVRAVMNRVNDTF | soluble
